{"source": "patent US6245531", "key": {"[1]": {"target": "T1, Ecdysone receptor EcR (878 aa ORF, Table 2) (Drosophila melanogaster) (UniProt P34021)", "T1 sequence": "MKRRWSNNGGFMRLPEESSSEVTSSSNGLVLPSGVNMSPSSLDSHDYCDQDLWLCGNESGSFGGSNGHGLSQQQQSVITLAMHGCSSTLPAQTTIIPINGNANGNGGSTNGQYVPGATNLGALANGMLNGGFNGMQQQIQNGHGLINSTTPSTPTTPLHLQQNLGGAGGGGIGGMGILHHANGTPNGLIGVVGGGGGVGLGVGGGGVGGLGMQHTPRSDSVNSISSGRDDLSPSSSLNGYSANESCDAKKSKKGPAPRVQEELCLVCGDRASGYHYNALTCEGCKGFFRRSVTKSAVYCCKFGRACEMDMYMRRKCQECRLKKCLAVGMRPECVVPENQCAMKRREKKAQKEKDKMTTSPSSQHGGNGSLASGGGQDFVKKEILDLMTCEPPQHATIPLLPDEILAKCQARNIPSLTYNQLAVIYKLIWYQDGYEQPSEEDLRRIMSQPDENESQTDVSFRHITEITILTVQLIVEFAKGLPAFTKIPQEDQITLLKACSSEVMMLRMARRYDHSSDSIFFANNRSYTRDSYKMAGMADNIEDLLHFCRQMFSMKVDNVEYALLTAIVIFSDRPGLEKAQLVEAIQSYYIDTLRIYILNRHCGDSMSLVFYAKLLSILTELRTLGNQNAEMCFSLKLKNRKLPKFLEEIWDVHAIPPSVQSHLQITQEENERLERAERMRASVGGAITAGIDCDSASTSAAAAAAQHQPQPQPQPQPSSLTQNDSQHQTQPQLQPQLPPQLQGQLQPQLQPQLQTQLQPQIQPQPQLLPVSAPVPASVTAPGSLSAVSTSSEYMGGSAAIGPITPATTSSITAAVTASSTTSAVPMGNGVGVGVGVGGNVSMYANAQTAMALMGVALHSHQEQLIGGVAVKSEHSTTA", "assay": "pulldown", "conditions": "anti-EcR immunoprecipitation on magnetic beads; 180 mM KCl EcR buffer pH 7.0, poly dI/dC, 25 C; no hormone stated; antibody dependent; scale: fold preference over average vector sequences"}, "[2]": {"target": "T2, Endogenous ecdysone receptor of Sch-2 cells (EcR) (Drosophila melanogaster) (UniProt P34021)", "T2 sequence": "T1 sequence", "assay": "cell_activity", "conditions": "20-OH ecdysone 2e-6 M, beta-galactosidase reporter"}}}
{"sequence": "TCGAGAGACAAGGGTTCAATGCACTTGTCCAATG / TCGACATTGGACAAGTGCATTGAACCCTTGTCTC", "values": [{"measurement": "binding signal", "setting": "[1]", "result": 1000}]}
{"sequence": "TCGAGAGACAAGGGTTCAATGCACTTGTCCAATG / TCGACATTGGACAAGTGCATTGAACCCTTGTCTC [pEcRE/Adh/betagal reporter, 7 x EcRE upstream of Adh -34+53]", "values": [{"measurement": "activity (fold induction by ecdysone)", "setting": "[2]", "result": 2000}]}
